The test system of data set [1] is C[C@H](CCC(=O)NCCS(=O)(=O)O)[C@H]1CC[C@H]2[C@@H]3CC[C@@H]4C[C@H](O)CC[C@]4(C)[C@H]3C[C@H](O)[C@]12C. Kind of data set: purified protein. As to conditions: pH 7.5; 37.0 °C.
Data set [2] concerns C[C@H](CCC(=O)NCCS(=O)(=O)O)[C@H]1CC[C@H]2[C@@H]3[C@@H](O)C[C@@H]4C[C@H](O)CC[C@]4(C)[C@H]3CC[C@]12C. Put plainly: purified protein. As to conditions: pH 7.5; 37.0 °C.

The record followed here is paper PMC7036035.

The term Km denotes the concentration of substrate that gives half-maximal velocity. The kcat is the maximal rate divided by the concentration of active sites. One may read the kcat/Km as the turnover number divided by the Michaelis constant.

Turning to “B. theta BSH (BT_2086) (Bacteroides thetaiotaomicron VPI-5482)”, in data set [1], the Km came out at 3.4 mM, the kcat is 0.215 ± 0.01 s⁻¹ and the kcat/Km worked out at 63.3 ± 11.7 M⁻¹ s⁻¹. Moreover, in data set [2], the Km was determined as 8.2 mM, the catalytic constant (kcat) was 0.255 ± 0.0133 s⁻¹ and the kcat/Km stood at 31.7 ± 5 M⁻¹ s⁻¹.
